In US20220281976A1 (Alector, published 2022):

What was measured:
[1] = target: T1, mouse CD33 Fc fusion protein (mouse, UniProt Q63994 18-240, limits assumed); assay: ForteBio BLI or MSD-SET
T1 construct: also called mCD33-Fc
T1 sequence: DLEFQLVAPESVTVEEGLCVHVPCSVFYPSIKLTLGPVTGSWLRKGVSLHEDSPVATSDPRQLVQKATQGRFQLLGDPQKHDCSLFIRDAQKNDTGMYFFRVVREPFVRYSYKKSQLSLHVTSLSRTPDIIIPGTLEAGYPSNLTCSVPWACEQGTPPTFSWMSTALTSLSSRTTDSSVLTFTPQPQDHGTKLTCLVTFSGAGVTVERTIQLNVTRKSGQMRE

human CD33 [2] = target: T2, human CD33 (human, UniProt P20138 18-364); assay: flow cytometry, human primary T cells;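 further: binding of anti-CD33 antibodies at 10 ug/ml to human primary T cells, 1 h on ice, detected with PE-labelled secondary antibody, read as flow cytometry MFI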
T2 construct: CD33 on human primary dendritic cells, macrophages, monocytes and T cells and on CHO cells expressing recombinant human CD33; also called Siglec-3; hCD33

human CD33 [3] = target: T2, human CD33; assay: cell-based or functional assay
human CD33 [4] = target: T2, human CD33; assay: flow cytometry, human primary macrophages;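 further: binding of CD33 antibodies at 10 µg/ml to human primary macrophages, 1 h on ice, detected with PE-labelled secondary antibody by flow cytometry, reported as MFI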
Experimental: Initial characterization of CD33 antibodies involved determining their ability to bind CD33 expressed on a CHO cell line, on human primary monocytes, human primary macrophages, human primary dendritic cells, and on human primary T cells. Cells were harvested, plated at 10⁶/ml in a 96 well plate, and incubated in 100 ul PBS containing 2% FBS, 2 mM EDTA and 10 ug/ml Mab and Fc blocking reagent for 1 hour in ice. Cells were washed twice and incubated in 100 ul PBS containing 2% FBS, 2 mM EDTA and 5 ug/ml PE-conjugated secondary antibody for 30 minutes on ice. Cells were washed twice in cold PBS and analyze by flow cytometry on a BD FACS Canto. Data analysis and calculation of MFI values was performed with FlowJo (TreeStar) software version 10.0.7.

[5] = target: T3, human CD33 Fc fusion protein (human, UniProt P20138 18-259); assay: RBC adhesion to plate-bound CD33-Fc; antibody 0.5 ug/ml;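 further: Plate-coated CD33-Fc preincubated 1 h with antibody, then red blood cells added for 1 h at room temperature, adherent cells lysed and quantified via peroxidase activity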
T3 construct: also called hCD33-Fc; human CD33/Fc chimera (R&D Systems)
Experimental: Briefly, 5 ug/ml CD33-Fc was coated overnight at RT in 96 well Immunolon plates, then washed with PBS, blocked for one hour with binding buffer (PBS containing %0.25 BSA 1 mM CaCl₂). CD33 antibodies (0.5 ug/ml or 1.0 ug/ml) or Fabs (25 ug/ml) were bound for one hour at RT with gentle rocking. After removal of unbound antibody, red blood cells were added to each well at a concentration of 3.0×10⁶ cells per ml and incubated at RT for one hour. Unbound RBCs were then carefully washed off 3× with PBS, and water was added to each well for hypotonic lysis of bound RBCs. The plate was transferred to −80° C. for 10 minutes, followed by 37° C. for 15 minutes. Bound RBCs were detected by peroxidase activity, followed by 2N sulfuric acid to stop the reaction.

human CD33 [6] = target: T2, human CD33; assay: flow cytometry, human primary monocytes; set-up: reference not given here;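 further: binding of anti-CD33 antibodies at 10 ug/ml to human primary monocytes, 1 h on ice, detected by PE-labelled secondary antibody, flow cytometry readout as mean fluorescence intensity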
[7] = target: T3, human CD33 Fc fusion protein; assay: RBC adhesion to plate-bound CD33-Fc; antibody 1.0 ug/ml;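 further: red blood cells adhering to plate-coated CD33-Fc after 1 h antibody pretreatment, then 1 h at room temperature, bound cells read as peroxidase activity after lysis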
[8] = target: T3, human CD33 Fc fusion protein; assay: ForteBio BLI or MSD-SET, IgG, avid;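 further: Anti-CD33 IgG affinity by BLI, IgG captured on AHQ sensors with antigen in solution and a one-to-one kinetic fit, or by MSD solution equilibrium titration with quadratic fit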
[9] = target: T4, human monomeric His tagged CD33 protein (human, UniProt P20138 18-259); assay: ForteBio BLI or MSD-SET, IgG, monomeric antigen;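 further: BLI: antibodies captured on AHQ sensors, 100 nM antigen association 5 min, dissociation 5 min, 1:1 fit. MSD-SET: antigen fixed at 50 pM, antibody titrated, quadratic fit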
T4 construct: also called hCD33-His
Experimental: The binding affinity of each anti-CD33 antibody was determined by measuring their KD by ForteBio or MSD-SET. […] Briefly, ForteBio affinity measurements were performed by loading IgGs on-line onto AHQ sensors. Sensors were equilibrated off-line in assay buffer for 30 min and then monitored on-line for 60 seconds for baseline establishment. Sensors with loaded IgGs were exposed to 100 nM antigen for 5 minutes, then transferred to assay buffer for 5 min for off-rate measurement. Kinetics were analyzed using the 1:1 binding model.
Solution equilibrium titrations (SET) were performed in PBS+0.1% IgG-Free BSA (PBSF) with antigen held constant at 50 pM and incubated with 3-to 5-fold serial dilutions of antibody starting at 10 nM. Antibodies (20 nM in PBS) were coated onto standard bind MSD-ECL plates overnight at 4° C. or at room temperature for 30 min. Plates were then blocked for 30 min with shaking at 700 rpm, followed by three washes with wash buffer (PBSF+0.05% Tween 20). SET samples were applied and incubated on the plates for 150s with shaking at 700 rpm followed by one wash. Antigen captured on a plate was detected with 250 ng/mL sulfotag-labeled streptavidin in PBSF by incubation on the plate for 3 min. The plates were washed three times with wash buffer and then read on the MSD Sector Imager 2400 instrument using 1× Read Buffer T with surfactant. The percent free antigen was plotted as a function of titrated antibody in Prism and fit to a quadratic equation to extract the KD. To improve throughput, liquid handling robots were used throughout MSD-SET experiments, including SET sample preparation.

human CD33 [10] = target: T2, human CD33; assay: flow cytometry, human primary dendritic cells;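 further: binding of anti-CD33 antibodies (10 ug/ml, 1 h on ice) to human primary dendritic cells, detected with a PE-labelled secondary antibody, reported as flow cytometry MFI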
[11] = target: T4, human monomeric His tagged CD33 protein; assay: ForteBio BLI or MSD-SET
[12] = target: T3, human CD33 Fc fusion protein; assay: ForteBio BLI or MSD-SET
[13] = target: T1, mouse CD33 Fc fusion protein; assay: ForteBio BLI or MSD-SET, IgG, avid;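 further: Anti-CD33 IgG affinity by BLI, IgG captured on AHQ sensors with antigen in solution and a one-to-one kinetic fit, or by MSD solution equilibrium titration with quadratic fit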

T2 sequence (P20138 18-364): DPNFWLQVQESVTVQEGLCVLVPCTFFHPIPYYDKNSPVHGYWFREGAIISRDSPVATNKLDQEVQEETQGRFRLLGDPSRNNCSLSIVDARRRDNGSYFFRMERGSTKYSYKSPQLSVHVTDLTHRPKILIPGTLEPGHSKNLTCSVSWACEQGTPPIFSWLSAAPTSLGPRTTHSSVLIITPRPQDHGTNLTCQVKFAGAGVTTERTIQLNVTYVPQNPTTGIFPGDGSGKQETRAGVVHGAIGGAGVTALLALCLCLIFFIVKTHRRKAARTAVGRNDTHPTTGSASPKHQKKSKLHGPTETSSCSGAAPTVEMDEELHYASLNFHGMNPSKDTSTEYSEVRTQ
T4 sequence (P20138 18-259 limits assumed): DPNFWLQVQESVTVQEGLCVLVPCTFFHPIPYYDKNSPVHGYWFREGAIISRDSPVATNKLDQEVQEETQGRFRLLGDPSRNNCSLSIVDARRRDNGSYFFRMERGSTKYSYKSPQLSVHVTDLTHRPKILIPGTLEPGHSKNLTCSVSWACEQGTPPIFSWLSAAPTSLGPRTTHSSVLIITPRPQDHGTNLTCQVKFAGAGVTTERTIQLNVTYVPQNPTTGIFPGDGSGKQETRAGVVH
T3 sequence (P20138 18-259 limits assumed): as above

Binder | binding result [1] | T cell MFI (human CD33 [2]) | Percent CD33 Surface Expression, DC % CD33 (human CD33 [3]) [%] | Percent CD33 Surface Expression, Macrophage % CD33 (human CD33 [3]) [%] | Percent CD33 Surface Expression, Monocyte % CD33 (human CD33 [3]) [%] | Macrophage MFI (human CD33 [4]) | Percent RBC Binding to CD33 [5] [%] | Monocyte MFI (human CD33 [6]) | Percent RBC Binding to CD33 [7] [%] | Kd [8] [nM] | Kd [9] [nM] | DC MFI (human CD33 [10]) | binding result [11] | binding result [12] | Kd [13] [nM]
C-30 (antibody, V domains shown) VH: QVQLVQSGAEVKKPGASVKVSCKASGYTFTSYYMHWVRQAPGQGLEWMGVINPSGGSTSYAQKFQGRVTMTRDTSTSTVYMELSSLRSEDTAVYYCAREEAVAADLGVDVWGQGTTVTVSS VL: not shown | no binding (tested: 100 nM) | 240 | 21 | 41.3 | 43 | 1060 | 14.2 | 169 | 8.9 | 0.985 | 4.12 | 1660 |  |  | 
C-47 (antibody, V domains shown, human IgG1) VH: QVQLVESGGGVVQPGRSLRLSCAASGFTFSSYGMHWVRQAPGKGLEWVAVISYDGSNKYYADSVKGRFTISRDNSKNTLYLQMNSLRAEDTAVYYCARGPYYSYTDTAWFDPWGQGTLVTVSS VL: not shown |  |  |  |  |  |  | 112 |  | 142 |  |  |  | no binding (tested: 100 nM) | no binding (tested: 100 nM) | 1.09
C-50 (antibody, V domains shown, human IgG1) VH: not shown VL: DIQMTQSPSSVSASVGDRVTITCRASQGISSWLAWYQQKPGKAPKLLIYAASSLQSGVPSRFSGSGSGTDFTLTISSLQPEDFATYYCQQAFDFPITFGGGTKVEIK |  | 112 | 87 |  | 85.3 | 496 | 118 | 54 | 95.3 |  |  | 307 | no binding (tested: 100 nM) | no binding (tested: 100 nM) | 0.445
C-33 (antibody, V domains shown, human IgG1) VH: EVQLVESGGGLVQPGGSLRLSCAASGFTFSSYWMSWVRQAPGKGLEWVANIKSDGSEKYYVDSVKGRFTISRDNAKNSLYLQMNSLRAEDTAVYYCAREGRPRLGYAAFDIWGQGTMVTVSS VL: DIQMTQSPSSLSASVGDRVTITCRASQSISSYLNWYQQKPGKAPKLLIYAASSLQSGVPSRFSGSGSGTDFTLTISSLQPEDFATYYCQQQYDLPITFGGGTKVEIK | no binding (tested: 100 nM) | 228 | 18.4 | 43.1 | 51.4 | 753 | 9.36 | 133 | 6.32 | 0.954 | 3.91 | 1590 |  |  | 
C-64 (antibody, V domains shown, human IgG1) VH: QVQLVQSGAEVKKPGSSVKVSCKASGGTFSSLAISWVRQAPGQGLEWMGGIIPIFGTANYAQKFQGRVTITADESTSTAYMELSSLRSEDTAVYYCARGTFYSDELFDYWGQGTLVTVSS VL: DIQMTQSPSSVSASVGDRVTITCRASQGISSWLAWYQQKPGKAPKLLIYAASSLQSGVPSRFSGSGSGTDFTLTISSLQPEDFATYYCQQENSYPLTFGGGTKVEIK |  | 188 | 31 | 40.5 | 29.5 | 1040 | 93.5 | 188 | 90.4 |  | 7.1 | 1300 |  |  | 25.8
C-28 (antibody, V domains shown, human IgG1) VH: EVQLVESGGGLVQPGGSLRLSCAASGFTFSSYWMSWVRQAPGKGLEWVANINQDGSEKYYVDSVKGRFTISRDNAKNSLYLQMNSLRAEDTAVYYCAREGRRTMNAFDIWGQGTMVTVSS VL: DIQMTQSPSSLSASVGDRVTITCRASQSISSYLNWYQQKPGKAPKLLIYGASSLQSGVPSRFSGSGSGTDFTLTISSLQPEDFATYYCQQGYDVPITFGGGTKVEIK | no binding (tested: 100 nM) | 402 | 14.8 | 40.2 | 29.2 | 811 | 14 | 143 | 9.65 | 1.02 | 4 | 1780 |  |  | 
C-34 (antibody, V domains shown, human IgG1) VH: EVQLVESGGGLVQPGGSLRLSCAASGFTFSSYWMSWVRQAPGKGLEWVANINQDGSEKYYVDSVKGRFTISRDNAKNSLYLQMNSLRAEDTAVYYCARDHGATGPDFDLWGRGTLVTVSS VL: DIQMTQSPSSLSASVGDRVTITCRASQSISSYLNWYQQKPGKAPKLLIYGASSLQSGVPSRFSGSGSGTDFTLTISSLQPEDFATYYCQQQYLTPLTFGGGTKVEIK | no binding (tested: 100 nM) | 216 | 20.1 | 38 | 42.5 | 862 | 14.4 | 157 | 9.86 | 1.21 | 4.44 | 1440 |  |  | 
C-51 (antibody, V domains shown, human IgG1) VH: QLQLQESGPGLVKPSETLSLTCTVSGGSISSSSYYWGWIRQPPGKGLEWIGSIYYSGSTYYNPSLKSRVTISVDTSKNQFSLKLSSVTAADTAVYYCARGAPHDYGGGVGWFDPWGQGTTVTVSS VL: DIQMTQSPSSVSASVGDRVTITCRASQGISSWLAWYQQKPGKAPKLLIYAASNLQSGVPSRFSGSGSGTDFTLTISSLQPEDFATYYCQQSRVFPWTFGGGTKVEIK |  |  |  |  |  |  | 96.6 |  | 129 |  |  |  | no binding (tested: 100 nM) | no binding (tested: 100 nM) | 2.72
C-32 (antibody, V domains shown, human IgG1) VH: EVQLVESGGGLVQPGGSLRLSCAASGFTFSSYWMSWVRQAPGKGLEWVANIKSDGSEKYYVDSVKGRFTISRDNAKNSLYLQMNSLRAEDTAVYYCARGPSEAAAAKDFDLWGRGTLVTVSS VL: not shown | no binding (tested: 100 nM) | 248 | 17.3 | 43.2 | 33.5 | 855 | 12.5 | 133 | 7.86 | 1.63 | 7.82 | 1460 |  |  | 
